T1: chicken interleukin 10 (chicken (Gallus gallus), UniProt Q6A2H4 22-174)
T1 sequence: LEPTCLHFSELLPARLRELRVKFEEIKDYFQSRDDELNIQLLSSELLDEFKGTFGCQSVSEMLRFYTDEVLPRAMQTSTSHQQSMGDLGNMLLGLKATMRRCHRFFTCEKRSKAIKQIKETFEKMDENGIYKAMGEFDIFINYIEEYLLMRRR


Columns and labels:
chicken interleukin 10 [1] = target: T1, chicken interleukin 10; test: cell-based or functional assay
chicken interleukin 10 [2] = target: T1, chicken interleukin 10; test: ELISA, sdAB titrated on cIL-10 coated plates

Binder	apparent EC50, recovery of IFN-γ secretion in primary chicken spleen cells treated with ConA and cIL-10 (chicken interleukin 10 [1])	EC50 (chicken interleukin 10 [2])
chIL10sdAB1A11 (VHH, not shown: small tags and cut ends, Llama single domain antibody; also called 1A11 sdAB; 81-IL-bR2-1A11) VHH: QVQLQESGGGLVQPGGSLRLSCAASGNIFSINTMGWYRQAPGKQRELVASITTGGTTNYEDSVKGRFTISRDNAKKTVYLQMNRLKPEDTAVYYCNHRRSYSGRDYPVYGMDYWGKGTLVTVSS	25 nM	~1 nM
chIL10sdAB1B9 (VHH, Llama single domain antibody; The construct used in the ELISA and the cell assay is not described) VHH: QVQLQESGGGLVQAGGSLRLSCAASGRTFSSYAWGWFRQAPGKEREFVARISFSGGHTYYSDSVKGRFTISRDNAKNTVYLQMNSLKPEDTAVYYCAADPTPYGLRNERNYPYWGQGTQVTVSS	40 nM	~35 nM
chIL10sdAB1H1 (VHH, Llama single domain antibody; The construct used in the ELISA is not described) VHH: QVQLQASGGGLVQAGGSLRLSCAASGRTFNSYAWGWFRQAPGKERGFVARISFSGGHTYYSDSVKGRFTISRDNAKNSVYLQMNSLKPEDTAVYYCAADPTPYGLRNERNYHYWGQGTQVTVSS	–	20 nM
chIL10sdAB1F11 (VHH, not shown: small tags and cut ends, Llama single domain antibody; also called 86-IL-bR2-1F11) VHH: QVQLQEFGGGLVQPGGSLRLSCAASGRTGSSYAMGWFRQAPGKEREFVAAISWSGGSTDYADSVKGRFTISRDNAKNTMYLQMNSLKPEDTAVYYCAVDRNLFKLRVAVQEYTNLGQGTQVTVSS	60 nM	~15 nM
chIL10sdAB1D6 (VHH, Llama single domain antibody; The construct used in the ELISA is not described; also called 44-IL-bR2-1D6) VHH: QVQLQASGGGLVQAGGSLRLSCQASESISSINTMGWFRQASGEEREFVAAIESGGATAYAESAKGRFTISRDNAKNTVYLQMNSLKPEDTAVYYCAAGVPTYDDDAMPISWRFWGRGTLVTVSS	–	~100 nM

Reference: US20240200089A1 (AGRIVIDA, published 2024)
